# Measured values: US20240000914A1
# Biological target: adeno-associated virus 2 (AAV2) vector capsid (AAV2-nLuc) (adeno-associated virus 2) (UniProt P03135)
# Assay: cell-based or functional assay
# UniProt P03135, sequence (P03135 whole entry, the tested form may be a part): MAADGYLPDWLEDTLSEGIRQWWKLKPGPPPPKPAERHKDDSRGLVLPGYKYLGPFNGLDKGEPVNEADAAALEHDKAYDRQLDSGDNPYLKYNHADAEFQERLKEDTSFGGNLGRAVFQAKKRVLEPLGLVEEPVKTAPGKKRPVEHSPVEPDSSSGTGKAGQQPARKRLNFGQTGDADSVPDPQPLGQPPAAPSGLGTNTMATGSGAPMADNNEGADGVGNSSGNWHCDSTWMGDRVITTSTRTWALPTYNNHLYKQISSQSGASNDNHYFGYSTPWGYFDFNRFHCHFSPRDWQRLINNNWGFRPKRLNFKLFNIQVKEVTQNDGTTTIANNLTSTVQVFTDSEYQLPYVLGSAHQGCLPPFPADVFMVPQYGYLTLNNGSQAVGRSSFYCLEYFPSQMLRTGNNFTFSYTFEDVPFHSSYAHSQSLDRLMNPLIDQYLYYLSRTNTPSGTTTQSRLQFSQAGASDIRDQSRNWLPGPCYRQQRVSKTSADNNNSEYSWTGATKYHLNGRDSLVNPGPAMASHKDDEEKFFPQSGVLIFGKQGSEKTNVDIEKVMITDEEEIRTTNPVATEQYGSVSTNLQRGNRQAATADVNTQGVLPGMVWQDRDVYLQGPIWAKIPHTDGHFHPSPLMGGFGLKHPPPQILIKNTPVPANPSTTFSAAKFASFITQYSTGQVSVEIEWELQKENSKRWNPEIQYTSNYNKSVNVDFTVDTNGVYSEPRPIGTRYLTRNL
substance,measurement,value
human intravenous immunoglobulin (IVIG) (antibody),50% geometric mean neutralizing reciprocal titer (50% GMT) (50% GMT (reciprocal titer)),1280
same,neutralization of AAV2-nLuc transduction (reciprocal dilution),1250
